Assay results from PMC7179120.

Tests used:
Test in all cases: other fluorescence titration; microplate-based binding assay (HI-FI) with Alexa-488-labelled Sod1 and Ccs; 20 mM Tris pH 7.5, 150 mM NaCl, 1 mM TCEP; plates imaged on a Typhoon FLA 9500; quadruplicate; apparent dissociation constants
[1] = molecular target: human Sod1 A4V/C146S, metal-free, disulfide reduced, labelled with Alexa-488 at C57 (human)
[2] = molecular target: human Sod1 H80R/C146S, metal-free, disulfide reduced, labelled with Alexa-488 at C57 (human)
[3] = molecular target: human Sod1 G93A/C146S, metal-free, disulfide reduced, labelled with Alexa-488 at C57 (human)
[4] = molecular target: human Sod1 G85R/C146S, metal-free, disulfide reduced, labelled with Alexa-488 at C57 (human)

Kd [1]: 42.1 nM
Kd [2]: 67.6 nM
Kd [3]: 33.4 nM
Kd [4]: 35.5 nM
Substance: human copper chaperone for Sod1 (Ccs) (natural protein)
